These results are taken from PMC6085627.

In assay [1] the target is human TLR4 (human), O00206. Briefly: SPR; Biacore T200; TLR4 amine-coupled on CM5 (800 RU); GST-A-box (310-10,000 nM), GST-B-box (1 and 5 μM), A-box or GST injected at 30 μL/min for 60 s, 25 °C, dissociation 2 min; HBS-EP pH 7.4; 1:1 binding supposed; apparent KD.
Assay [2] has as its target Human TLR4/MD-2 complex (human), O00206. Briefly: SPR; Biacore T200; TLR4/MD-2 amine-coupled on CM5 (1100 RU); GST-A-box, GST-B-box (150-5000 nM), A-box or GST injected at 30 μL/min for 60 s, 25 °C, dissociation 1 min; HBS-EP pH 7.4; GST-A-box: association and dissociation fitted separately to a 1:1 model; GST-B-box: steady-state affinity model; apparent KD.
In assay [3] the target is Human TLR4 (rhTLR4) (human), O00206. Put plainly: SPR; TLR4/MD-2 complex or TLR4 coated on a CM5 chip; A-box protein injected as analyte (0-5 µM on TLR4/MD-2, 0-10 µM on TLR4); Biacore T200, HBS-EP buffer pH 7.4.
Assay [4] deals with Human TLR4/MD-2 complex (human), O00206. Described as above.
Target sequence in this assay (O00206 24-631, chain 1 of 2, one chain of several): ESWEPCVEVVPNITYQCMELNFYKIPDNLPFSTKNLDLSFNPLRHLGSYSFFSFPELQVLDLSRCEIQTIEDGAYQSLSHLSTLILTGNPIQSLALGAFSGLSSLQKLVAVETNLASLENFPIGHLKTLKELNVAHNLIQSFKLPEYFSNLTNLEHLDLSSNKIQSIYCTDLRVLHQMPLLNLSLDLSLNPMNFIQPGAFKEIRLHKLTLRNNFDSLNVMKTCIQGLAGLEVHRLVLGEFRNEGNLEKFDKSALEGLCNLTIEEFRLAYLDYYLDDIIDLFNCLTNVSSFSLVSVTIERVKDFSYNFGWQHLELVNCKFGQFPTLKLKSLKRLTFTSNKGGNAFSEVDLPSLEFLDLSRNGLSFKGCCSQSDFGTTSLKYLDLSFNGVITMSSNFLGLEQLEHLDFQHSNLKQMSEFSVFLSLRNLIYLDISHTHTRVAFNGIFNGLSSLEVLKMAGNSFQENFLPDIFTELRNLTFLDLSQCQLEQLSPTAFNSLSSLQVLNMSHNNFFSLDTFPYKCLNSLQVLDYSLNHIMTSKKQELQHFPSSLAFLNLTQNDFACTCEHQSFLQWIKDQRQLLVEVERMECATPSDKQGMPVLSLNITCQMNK
A further assay addresses Recombinant GST-A-box. Put plainly: SPR; Biacore T200; GST-A-box (750 RU) or GST-B-box (1000 RU) amine-coupled on CM5; MD-2 injected (17-500 nM) at 30 μL/min for 60 s, 25 °C, dissociation 1 min; HBS-EP pH 7.4; steady-state affinity model; apparent KD.
A further assay has as its target Recombinant GST-B-box. The assay is described as above.
The target of assay [5] is human TLR4 (human), O00206. Put plainly: SPR; Biacore T200; rhTLR4 amine-coupled on CM5 (~800 RU); HMGB1 isoforms injected at 30 μL/min for 60 s, 25 °C, dissociation 1-2 min; HBS-EP pH 7.4; 1:1 binding supposed; apparent KD. The following applies: remark: other sources report otherwise.

Chain of human TLR4 (human), O00206 (O00206 24-631): as the sequence (O00206 24-631, chain 1 of 2, one chain of several) above
Chain of Human TLR4 (rhTLR4) (human), O00206 (O00206 24-631): as the sequence (O00206 24-631, chain 1 of 2, one chain of several) above

B1: Recombinant GST-A-box (domain or fragment)
chain: PRGKMSSYAFFVQTCREEHKKKHPDASVNFSEFSKKCSERWKTMSAKEKGKFEDMAKADKARYEREMKTYI
modifications: not checked
For B1, in assay [1], the Kd came out at 590 nM, the koff is 0.013 s⁻¹ and the kon came to 22000 M⁻¹ s⁻¹. In assay [2], the Kd was 1210 nM, the koff was determined as 0.037 s⁻¹ and the kon worked out at 30800 M⁻¹ s⁻¹.

B2: Recombinant A-box without GST tag (HMGB1 A-box domain) (domain or fragment)
chain: B1 chain
modifications: not checked
Consider B2, for which the values for the Kd in assay [3] and in assay [4] were 1030 nM and 1550 nM, respectively.

B3: human MD-2, Q9Y6Y9 19-160 (natural protein)
chain: QKQYWVCNSSDASISYTYCDKMQYPISINVNPCIELKRSKGLLHIFYIPRRDLKQLYFNLYITVNTMNLPKRKEVICRGSDDDYSFCRALKGETVNTTISFSFKGIKFSKGKYKCVVEAISGSPEEMLFCLEFVILHQPNSN
In the case of B3, the Kd with Recombinant GST-A-box worked out at 3250 nM.

B4: human MD-2 (natural protein)
chain: B3 chain
Take B4: the Kd in the assay with Recombinant GST-B-box turned out to be 1410 nM.

B5: disulfide HMGB1 (High Mobility Group Box 1), P63159 1-215 (natural protein)
chain: MGKGDPKKPRGKMSSYAFFVQTCREEHKKKHPDASVNFSEFSKKCSERWKTMSAKEKGKFEDMAKADKARYEREMKTYIPPKGETKKKFKDPNAPKRPPSAFFLFCSEYRPKIKGEHPGLSIGDVAKKLGEMWNNTAADDKQPYEKKAAKLKEKYEKDIAAYRAKGKPDAAKKGVVKAEKSKKKKEEEDDEEDEEDEEEEEEEEDEDEEEDDDDE
modifications: here or on the partner: disulfide bond between C23 and C45
B5: in assay [5], the Kd was found to be 640 nM, the fold slower dissociation rate than reduced HMGB1 was found to be 2 fold and the koff came out at 0.128 s⁻¹.

B6: DTT reduced HMGB1, P63159 1-215 (natural protein)
chain: B5 chain
modifications: here or on the partner: cysteines reduced with DTT (no C23-C45 disulfide)
Take B6: the Kd in assay [5] worked out at 650 nM.
